Experimental data from patent US20200199204A1 (UNITED STATES OF AMERICA AS REPRESENTED BY THE SECRETARY …, published 2020).

Columns and labels:
Test in all cases: cell-based or functional assay
HIV-1 Env of 3016.V5.c36 = HIV-1 Env of 3016.V5.c36 (HIV-1)
HIV-1 Env of REJO.67 = HIV-1 Env of REJO.67 (HIV-1)
HIV-1 Env of CAP256.PI = HIV-1 Env of CAP256.PI (HIV-1)
HIV-1 Env of WITO.33 = HIV-1 Env of WITO.33 (HIV-1)
HIV-1 Env of Q461.e2 = HIV-1 Env of Q461.e2 (HIV-1)
HIV-1 Env of 191821.E6.1 = HIV-1 Env of 191821.E6.1 (HIV-1)
HIV-1 Env of C1080.c3 = HIV-1 Env of C1080.c3 (HIV-1)
HIV-1 Env of DU422.01 = HIV-1 Env of DU422.01 (HIV-1)
HIV-1 Env of KER2008.12 = HIV-1 Env of KER2008.12 (HIV-1)
HIV-1 Env of RHPA.7 = HIV-1 Env of RHPA.7 (HIV-1)
Env of SIVmac251.30 = Env of SIVmac251.30 (SIV (printed as nonHIV))
HIV-1 Env of PVO.04 = HIV-1 Env of PVO.04 (HIV-1)
HIV-1 Env of TRJO.58 = HIV-1 Env of TRJO.58 (HIV-1)
HIV-1 Env of Q769.d22 = HIV-1 Env of Q769.d22 (HIV-1)
HIV-1 Env of MB539.2B7 = HIV-1 Env of MB539.2B7 (HIV-1)
HIV-1 Env of ZM214.15 = HIV-1 Env of ZM214.15 (HIV-1)
HIV-1 Env of DU156.12 = HIV-1 Env of DU156.12 (HIV-1)
HIV-1 Env of RW020.2 = HIV-1 Env of RW020.2 (HIV-1)
HIV-1 Env of BG505.w6m = HIV-1 Env of BG505.w6m (HIV-1)
HIV-1 Env of Q23.17 = HIV-1 Env of Q23.17 (HIV-1)
HIV-1 Env of CAP256.SU = HIV-1 Env of CAP256.SU (HIV-1)
HIV-1 Env of Q168.a2 = HIV-1 Env of Q168.a2 (HIV-1)
HIV-1 Env of CAAN.A2 = HIV-1 Env of CAAN.A2 (HIV-1)
HIV-1 Env of CAP45.G3 = HIV-1 Env of CAP45.G3 (HIV-1)
HIV-1 Env of TH976.17 = HIV-1 Env of TH976.17 (HIV-1)
HIV-1 Env of CNE3 = HIV-1 Env of CNE3 (HIV-1)
HIV-1 Env of QH0692.42 = HIV-1 Env of QH0692.42 (HIV-1)
HIV-1 Env of 96ZM651.02 = HIV-1 Env of 96ZM651.02 (HIV-1)
HIV-1 Env of Q842.d12 = HIV-1 Env of Q842.d12 (HIV-1)
HIV-1 Env of SC422.8 = HIV-1 Env of SC422.8 (HIV-1)
HIV-1 Env of CAP244.D3 = HIV-1 Env of CAP244.D3 (HIV-1)
HIV-1 Env of MB201 = HIV-1 Env of MB201 (HIV-1)
HIV-1 Env of THRO.18 = HIV-1 Env of THRO.18 (HIV-1)
HIV-1 Env of ZM53.12 = HIV-1 Env of ZM53.12 (HIV-1)
HIV-1 Env of ZM109.4 = HIV-1 Env of ZM109.4 (HIV-1)
HIV-1 Env of 0260.v5.c36 = HIV-1 Env of 0260.v5.c36 (HIV-1)
HIV-1 Env of Q259.d2.17 = HIV-1 Env of Q259.d2.17 (HIV-1)
HIV-1 Env of CAP210.E8 = HIV-1 Env of CAP210.E8 (HIV-1)
HIV-1 Env of ZM135.10a = HIV-1 Env of ZM135.10a (HIV-1)
HIV-1 Env of 6535.3 = HIV-1 Env of 6535.3 (HIV-1)
HIV-1 Env of 6405.v4.c34 = HIV-1 Env of 6405.v4.c34 (HIV-1)
HIV-1 Env of CM244.ec1 = HIV-1 Env of CM244.ec1 (HIV-1)
HIV-1 Env of ZM197.7 = HIV-1 Env of ZM197.7 (HIV-1)
HIV-1 Env of ZM249.1 = HIV-1 Env of ZM249.1 (HIV-1)
HIV-1 Env of DU172.17 = HIV-1 Env of DU172.17 (HIV-1)
HIV-1 Env of AC10.29 = HIV-1 Env of AC10.29 (HIV-1)
HIV-1 Env of TRO.11 = HIV-1 Env of TRO.11 (HIV-1)
HIV-1 Env of ZM233.6 = HIV-1 Env of ZM233.6 (HIV-1)
HIV-1 Env of UG037.8 = HIV-1 Env of UG037.8 (HIV-1)
HIV-1 Env of KER2018.11 = HIV-1 Env of KER2018.11 (HIV-1)

B1: CAP256-VRC26.01 (antibody, V domains shown)
VH: EVQVVESGGGVVQPGRSLRLSCTASGFTFSNFAMGWVRQAPGKGLEWVAFISSDGSNKNYGDSVKGRFTISRDNSKNTVFLQMNSLRVEDTALYYCAKDVGDYKSDEWGTEYYDISISYPIQDPRAMVGAFDLWGQGTMVTVSP
VL: QSVLTQPPSVSAAPGQKVTISCSGSSSTIGNNYVSWYRLLPGTAPKLLIYKNDNRPSGIPDRFSGSKSGTSATLGISGLQTGDEADYYCGTWDTSLSGGGVFGTGTKVTVLG
neutralization IC50 (HIV-1 Env of 3016.V5.c36): 9.63 µg/mL
neutralization IC50 (HIV-1 Env of REJO.67): > 50 µg/mL
neutralization IC50 (HIV-1 Env of CAP256.PI): > 50 µg/mL
neutralization IC50 (HIV-1 Env of WITO.33): > 50 µg/mL
neutralization IC50 (HIV-1 Env of Q461.e2): > 50 µg/mL
neutralization IC50 (HIV-1 Env of 191821.E6.1): > 50 µg/mL
neutralization IC50 (HIV-1 Env of C1080.c3): > 50 µg/mL
neutralization IC50 (HIV-1 Env of DU422.01): > 50 µg/mL
neutralization IC50 (HIV-1 Env of KER2008.12): 30.9 µg/mL
neutralization IC50 (HIV-1 Env of RHPA.7): > 50 µg/mL
neutralization IC50 (Env of SIVmac251.30): > 50 µg/mL
neutralization IC50 (HIV-1 Env of PVO.04): > 50 µg/mL
neutralization IC50 (HIV-1 Env of TRJO.58): > 50 µg/mL
neutralization IC50 (HIV-1 Env of Q769.d22): > 50 µg/mL
neutralization IC50 (HIV-1 Env of MB539.2B7): > 50 µg/mL
neutralization IC50 (HIV-1 Env of ZM214.15): > 50 µg/mL
neutralization IC50 (HIV-1 Env of DU156.12): > 50 µg/mL
neutralization IC50 (HIV-1 Env of RW020.2): > 50 µg/mL
neutralization IC50 (HIV-1 Env of BG505.w6m): > 50 µg/mL
neutralization IC50 (HIV-1 Env of Q23.17): > 50 µg/mL
neutralization IC50 (HIV-1 Env of CAP256.SU): 0.14 µg/mL
neutralization IC50 (HIV-1 Env of Q168.a2): > 50 µg/mL
neutralization IC50 (HIV-1 Env of CAAN.A2): > 50 µg/mL
neutralization IC50 (HIV-1 Env of CAP45.G3): > 50 µg/mL
neutralization IC50 (HIV-1 Env of TH976.17): > 50 µg/mL
neutralization IC50 (HIV-1 Env of CNE3): > 50 µg/mL
neutralization IC50 (HIV-1 Env of QH0692.42): > 50 µg/mL
neutralization IC50 (HIV-1 Env of 96ZM651.02): > 50 µg/mL
neutralization IC50 (HIV-1 Env of Q842.d12): > 50 µg/mL
neutralization IC50 (HIV-1 Env of SC422.8): > 50 µg/mL
neutralization IC50 (HIV-1 Env of CAP244.D3): > 50 µg/mL
neutralization IC50 (HIV-1 Env of MB201): > 50 µg/mL
neutralization IC50 (HIV-1 Env of THRO.18): > 50 µg/mL
neutralization IC50 (HIV-1 Env of ZM53.12): 0.103 µg/mL
neutralization IC50 (HIV-1 Env of ZM109.4): > 50 µg/mL
neutralization IC50 (HIV-1 Env of 0260.v5.c36): > 50 µg/mL
neutralization IC50 (HIV-1 Env of Q259.d2.17): > 50 µg/mL
neutralization IC50 (HIV-1 Env of CAP210.E8): 0.217 µg/mL
neutralization IC50 (HIV-1 Env of ZM135.10a): > 50 µg/mL
neutralization IC50 (HIV-1 Env of 6535.3): > 50 µg/mL
neutralization IC50 (HIV-1 Env of 6405.v4.c34): > 50 µg/mL
neutralization IC50 (HIV-1 Env of CM244.ec1): 3.32 µg/mL
neutralization IC50 (HIV-1 Env of ZM197.7): 10.4 µg/mL
neutralization IC50 (HIV-1 Env of ZM249.1): > 50 µg/mL
neutralization IC50 (HIV-1 Env of DU172.17): > 50 µg/mL
neutralization IC50 (HIV-1 Env of AC10.29): > 50 µg/mL
neutralization IC50 (HIV-1 Env of TRO.11): > 50 µg/mL
neutralization IC50 (HIV-1 Env of ZM233.6): > 50 µg/mL
neutralization IC50 (HIV-1 Env of UG037.8): > 50 µg/mL
neutralization IC50 (HIV-1 Env of KER2018.11): 8.1 µg/mL
